{"source": "patent US20180118786A1", "about": "(published 2018)", "binders": {"B1": {"name": "peptide 4 (peptide 2, Phe3 to tyrosine) (peptide)", "peptide": "RCYRLPCRQLRCRW-NH2", "modifications": "linker 2-7-12 via TATA; N-terminus assumed", "SMILES": "CC(C)C[C@@H]1NC(=O)[C@H](CCC(N)=O)NC(=O)[C@H](CCCNC(=N)N)NC(=O)[C@@H]2CSCCC(=O)N3CN(CN(C3)C(=O)CCSC[C@H](NC(=O)[C@@H](N)CCCNC(=N)N)C(=O)N[C@@H](Cc3ccc(O)cc3)C(=O)N[C@@H](CCCNC(=N)N)C(=O)N[C@@H](CC(C)C)C(=O)N3CCC[C@H]3C(=O)N2)C(=O)CCSC[C@@H](C(=O)N[C@@H](CCCNC(=N)N)C(=O)N[C@@H](Cc2c[nH]c3ccccc23)C(N)=O)NC(=O)[C@H](CCCNC(=N)N)NC1=O"}, "B2": {"name": "peptide 5 (peptide 2, Phe3 to leucine) (peptide)", "peptide": "RCLRLPCRQLRCRW-NH2", "modifications": "linker 2-7-12 via TATA; N-terminus assumed", "SMILES": "CC(C)C[C@@H]1NC(=O)[C@H](CCC(N)=O)NC(=O)[C@H](CCCNC(=N)N)NC(=O)[C@@H]2CSCCC(=O)N3CN(CN(C3)C(=O)CCSC[C@H](NC(=O)[C@@H](N)CCCNC(=N)N)C(=O)N[C@@H](CC(C)C)C(=O)N[C@@H](CCCNC(=N)N)C(=O)N[C@@H](CC(C)C)C(=O)N3CCC[C@H]3C(=O)N2)C(=O)CCSC[C@@H](C(=O)N[C@@H](CCCNC(=N)N)C(=O)N[C@@H](Cc2c[nH]c3ccccc23)C(N)=O)NC(=O)[C@H](CCCNC(=N)N)NC1=O"}, "B3": {"name": "FXII618 variant with F in position three replaced by 3-benzothienylalanine (peptide)", "peptide": "RC[Bta]RLPCRQLRCRW-NH2", "modifications": "linker 2-7-12 via TATA"}, "B4": {"name": "FXII506 (peptide)", "chain": "ACWGACQNVCR"}, "B5": {"name": "FXII534 (peptide)", "chain": "ACWGAASACQQGGAKCG"}, "B6": {"name": "FXII504 (peptide)", "chain": "VCWGACLNVCP"}, "B7": {"name": "FXII527 (peptide)", "chain": "ACWGAALSCNPQGSRCG"}, "B8": {"name": "FXII528 (peptide)", "chain": "ACWGAAQRCKVMQGECG"}, "B9": {"name": "FXII502 (peptide)", "chain": "RCWGACLNVCS"}, "B10": {"name": "FXII514 (peptide)", "chain": "LCSRLPCEQLPCN"}, "B11": {"name": "FXII515 (peptide)", "chain": "LCPRLSCHQLGCS"}, "B12": {"name": "FXII509 (peptide)", "chain": "RCWYGCVPQCY"}, "B13": {"name": "FXII513 (peptide)", "chain": "GCCYLRYLCS"}, "B14": {"name": "peptide 83 (FXII618, Arg8 to glycine) (peptide)", "peptide": "RCFRLPCGQLRCR-NH2", "modifications": "linker 2-7-12 via TATA; N-terminus assumed", "SMILES": "CC(C)C[C@@H]1NC(=O)[C@H](CCC(N)=O)NC(=O)CNC(=O)[C@@H]2CSCCC(=O)N3CN(CN(C3)C(=O)CCSC[C@H](NC(=O)[C@@H](N)CCCNC(=N)N)C(=O)N[C@@H](Cc3ccccc3)C(=O)N[C@@H](CCCNC(=N)N)C(=O)N[C@@H](CC(C)C)C(=O)N3CCC[C@H]3C(=O)N2)C(=O)CCSC[C@@H](C(=O)N[C@@H](CCCNC(=N)N)C(N)=O)NC(=O)[C@H](CCCNC(=N)N)NC1=O"}, "B15": {"name": "Gln9 Histidine (24) (peptide)", "chain": "RCFRLPCRHLRCR"}, "B16": {"name": "peptide 21 (peptide 2, Gln9 to aspartate) (peptide)", "peptide": "RCFRLPCRDLRCRW-NH2", "modifications": "linker 2-7-12 via TATA; N-terminus assumed", "SMILES": "CC(C)C[C@@H]1NC(=O)[C@H](CC(=O)O)NC(=O)[C@H](CCCNC(=N)N)NC(=O)[C@@H]2CSCCC(=O)N3CN(CN(C3)C(=O)CCSC[C@H](NC(=O)[C@@H](N)CCCNC(=N)N)C(=O)N[C@@H](Cc3ccccc3)C(=O)N[C@@H](CCCNC(=N)N)C(=O)N[C@@H](CC(C)C)C(=O)N3CCC[C@H]3C(=O)N2)C(=O)CCSC[C@@H](C(=O)N[C@@H](CCCNC(=N)N)C(=O)N[C@@H](Cc2c[nH]c3ccccc23)C(N)=O)NC(=O)[C@H](CCCNC(=N)N)NC1=O"}, "B17": {"name": "peptide 82 (FXII618, Arg8 to β-alanine) (peptide)", "peptide": "RCFRLPC[βAla]QLRCR-NH2", "modifications": "linker 2-7-12 via TATA; not fully specified"}, "B18": {"name": "Gln9 Glutamic acid (23) (peptide)", "chain": "RCFRLPCRELRCR"}, "B19": {"name": "Gln9 Asparagine (22) (peptide)", "chain": "RCFRLPCRNLRCR"}, "B20": {"name": "peptide 18 (peptide 2, Pro6 to leucine) (peptide)", "peptide": "RCFRLLCRQLRCRW-NH2", "modifications": "linker 2-7-12 via TATA; N-terminus assumed", "SMILES": "CC(C)C[C@@H]1NC(=O)[C@H](CCC(N)=O)NC(=O)[C@H](CCCNC(=N)N)NC(=O)[C@@H]2CSCCC(=O)N3CN(CN(C3)C(=O)CCSC[C@H](NC(=O)[C@@H](N)CCCNC(=N)N)C(=O)N[C@@H](Cc3ccccc3)C(=O)N[C@@H](CCCNC(=N)N)C(=O)N[C@@H](CC(C)C)C(=O)N[C@@H](CC(C)C)C(=O)N2)C(=O)CCSC[C@@H](C(=O)N[C@@H](CCCNC(=N)N)C(=O)N[C@@H](Cc2c[nH]c3ccccc23)C(N)=O)NC(=O)[C@H](CCCNC(=N)N)NC1=O"}, "B21": {"name": "Pro6 Valine (17) (peptide)", "chain": "RCFRLVCRQLRCR"}, "B22": {"name": "peptide 15 (peptide 2, Pro6 to alanine) (peptide)", "peptide": "RCFRLACRQLRCRW-NH2", "modifications": "linker 2-7-12 via TATA; N-terminus assumed", "SMILES": "CC(C)C[C@@H]1NC(=O)[C@H](CCCNC(=N)N)NC(=O)[C@H](Cc2ccccc2)NC(=O)[C@@H](NC(=O)[C@@H](N)CCCNC(=N)N)CSCCC(=O)N2CN3CN(C2)C(=O)CCSC[C@@H](C(=O)N[C@@H](CCCNC(=N)N)C(=O)N[C@@H](Cc2c[nH]c4ccccc24)C(N)=O)NC(=O)[C@H](CCCNC(=N)N)NC(=O)[C@H](CC(C)C)NC(=O)[C@H](CCC(N)=O)NC(=O)[C@H](CCCNC(=N)N)NC(=O)[C@H](CSCCC3=O)NC(=O)[C@H](C)NC1=O"}, "B23": {"name": "Pro6 Aspartic acid (20) (peptide)", "chain": "RCFRLDCRQLRCR"}, "B24": {"name": "Pro6 Asparagine (19) (peptide)", "chain": "RCFRLNCRQLRCR"}, "B25": {"name": "FXII618 variant with P in position six replaced by S (peptide)", "peptide": "RCFRLSCRQLRCRW-NH2", "modifications": "linker 2-7-12 via TATA; N-terminus assumed", "SMILES": "CC(C)C[C@@H]1NC(=O)[C@H](CCC(N)=O)NC(=O)[C@H](CCCNC(=N)N)NC(=O)[C@@H]2CSCCC(=O)N3CN(CN(C3)C(=O)CCSC[C@H](NC(=O)[C@@H](N)CCCNC(=N)N)C(=O)N[C@@H](Cc3ccccc3)C(=O)N[C@@H](CCCNC(=N)N)C(=O)N[C@@H](CC(C)C)C(=O)N[C@@H](CO)C(=O)N2)C(=O)CCSC[C@@H](C(=O)N[C@@H](CCCNC(=N)N)C(=O)N[C@@H](Cc2c[nH]c3ccccc23)C(N)=O)NC(=O)[C@H](CCCNC(=N)N)NC1=O"}, "B26": {"name": "FXII607 (peptide)", "chain": "RCPRLPCAQLSCE"}, "B27": {"name": "FXII617 (peptide)", "chain": "RCFRLPCAQLRCR"}, "B28": {"name": "FXII613 (peptide)", "chain": "RCFRLPCSQLSCE"}, "B29": {"name": "FXII609 (peptide)", "chain": "RCPRLPCAQLRCE"}, "B30": {"name": "FXII612 (peptide)", "chain": "RCFRLPCEQLSCE"}, "B31": {"name": "FXII616 (peptide)", "chain": "RCFRLPCRQLRCA"}, "B32": {"name": "FXII608 (peptide)", "chain": "RCFRLPCAQLRCE"}, "B33": {"name": "FXII610 (peptide)", "chain": "ACFRLPCAQLSCE"}, "B34": {"name": "FXII614 (peptide)", "chain": "RCFRLPCRQLSCE"}, "B35": {"name": "FXII615 (peptide)", "chain": "RCFRLPCWQLSCE"}}, "note": "Starred links: 1 amine or outer side, 2 acyl side, 3 side chain; linkers in the order of their positions; H or OH if unused. Positions of bridges follow the written chain, without caps; N, C: chain ends. Non-standard residues stand in square brackets, D forms with d. No end group written: not given here. TATA = O=C(CC[*:1])N1CN(C(=O)CC[*:2])CN(C(=O)CC[*:3])C1; Bta = N[C@@H](Cc1csc2ccccc12)C(=O)O; βAla = NCCC(=O)O", "data": [{"biological_target": "T1, human β-FXIIa (HFXIIAB; Molecular Innovations) (human, UniProt P00748 354-362; P00748 373-615)", "T1 chain 1": "NGPLSCGQR", "T1 chain 2": "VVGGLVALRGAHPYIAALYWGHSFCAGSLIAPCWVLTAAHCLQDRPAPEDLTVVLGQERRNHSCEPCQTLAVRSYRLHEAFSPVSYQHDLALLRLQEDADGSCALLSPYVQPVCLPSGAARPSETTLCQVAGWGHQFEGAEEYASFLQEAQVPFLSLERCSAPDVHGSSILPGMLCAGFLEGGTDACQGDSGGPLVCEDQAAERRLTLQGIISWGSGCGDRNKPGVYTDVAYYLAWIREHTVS", "assay": "enzyme inhibition", "units": {"Ki": "nM"}, "values": [{"binder": "B1", "Ki": 82}, {"binder": "B2", "Ki": 70}, {"binder": "B3", "Ki": 23}]}, {"biological_target": "T1, human β-FXIIa (HFXIIAB; Molecular …)", "assay": "enzyme inhibition; TATA-cyclized", "units": {"Ki": "nM"}, "values": [{"binder": "B4", "Ki": 6300}, {"binder": "B5", "Ki": 2400}, {"binder": "B6", "Ki": 1900}, {"binder": "B7", "Ki": 8500}, {"binder": "B8", "Ki": 3700}, {"binder": "B9", "Ki": 1200}, {"binder": "B10", "Ki": 10200}, {"binder": "B11", "Ki": 2500}, {"binder": "B12", "Ki": 1000}, {"binder": "B13", "Ki": 350}]}, {"biological_target": "T1, human β-FXIIa (HFXIIAB; Molecular …)", "assay": "enzyme inhibition", "remark": "another data set of the same source", "units": {"Ki": "nM"}, "values": [{"binder": "B14", "Ki": 52}, {"binder": "B15", "Ki": "> 10000"}, {"binder": "B16", "Ki": 1400}, {"binder": "B17", "Ki": 755}, {"binder": "B18", "Ki": "> 10000"}, {"binder": "B19", "Ki": 2550}]}, {"biological_target": "T1, human β-FXIIa (HFXIIAB; Molecular …)", "assay": "enzyme inhibition", "remark": "another data set of the same source", "units": {"Ki": "nM"}, "values": [{"binder": "B20", "Ki": 20}, {"binder": "B21", "Ki": 119}, {"binder": "B22", "Ki": 50}, {"binder": "B23", "Ki": 307}, {"binder": "B24", "Ki": 264}, {"binder": "B25", "Ki": 75}]}, {"biological_target": "T1, human β-FXIIa (HFXIIAB; Molecular …)", "assay": "enzyme inhibition", "remark": "another data set of the same source", "units": {"Ki": "nM"}, "values": [{"binder": "B26", "Ki": 985}, {"binder": "B27", "Ki": 25}, {"binder": "B28", "Ki": 62}, {"binder": "B29", "Ki": 123}, {"binder": "B30", "Ki": 63}, {"binder": "B31", "Ki": 31}, {"binder": "B32", "Ki": 44}, {"binder": "B33", "Ki": 231}, {"binder": "B34", "Ki": 39}, {"binder": "B35", "Ki": 246}]}]}
